According to paper PMC2901902 (Nature, 2010):

Target: human DPF3b PHD12 (tandem PHD finger) (Homo sapiens, UniProt Q92784)
Assay: DPF3b PHD12 binding to modified histone peptides
Conditions: H3 peptide residues 1–20, versus H3K14ac

Sequence of human DPF3b PHD12 (tandem PHD finger) (Q92784 261-372): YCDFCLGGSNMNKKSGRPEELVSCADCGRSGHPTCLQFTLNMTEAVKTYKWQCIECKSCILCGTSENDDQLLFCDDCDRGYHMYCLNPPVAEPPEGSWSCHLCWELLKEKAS

H3 peptide (residues 1–20): H3 peptide (residues 1–20), not acetylated at K14
reduction in affinity when H3 is not acetylated at K14: 4 fold
